US20230279077A1

Experiments:
[1] = target: HSV-1 glycoprotein D-Fc fusion protein (HSV-1) (UniProt Q69091); test: phage ELISA, glycoprotein D coated, anti-M13 HRP; well B2
[2] = target: HSV-1 glycoprotein D-Fc fusion protein (HSV-1) (UniProt Q69091); test: phage ELISA, glycoprotein D coated, anti-M13 HRP; well H5
[3] = target: HSV-1 glycoprotein D-Fc fusion protein (HSV-1) (UniProt Q69091); test: SPR single-cycle kinetics, G-Fc captured on anti-human IgG, 25 C, 1:1 Binding fit; item G19 2, curve Fc=3-1; Table 6 calls the fit to the 1:1 model poor
[4] = target: HSV-1 glycoprotein D-Fc fusion protein (HSV-1) (UniProt Q69091); test: phage ELISA, glycoprotein D coated, anti-M13 HRP; well C3
[5] = target: HSV-1 glycoprotein D-Fc fusion protein (HSV-1) (UniProt Q69091); test: SPR single-cycle kinetics, G-Fc captured on anti-human IgG, 25 C, 1:1 Binding fit; item G19, curve Fc=2-1; Table 6 calls the fit to the 1:1 model poor
[6] = target: HSV-1 glycoprotein D-Fc fusion protein (HSV-1) (UniProt Q69091); test: phage ELISA, glycoprotein D coated, anti-M13 HRP; well H3
[7] = target: HSV-1 glycoprotein D-Fc fusion protein (HSV-1) (UniProt Q69091); test: phage ELISA, glycoprotein D coated, anti-M13 HRP; well B4
[8] = target: HSV-1 glycoprotein D-Fc fusion protein (HSV-1) (UniProt Q69091); test: phage ELISA, glycoprotein D coated, anti-M13 HRP; well E10
[9] = target: HSV-1 glycoprotein D-Fc fusion protein (HSV-1) (UniProt Q69091); test: SPR Biacore T200, single cycle kinetics, G-Fc captured on anti-human IgG, 1:1 fit, second run
[10] = target: HSV-1 glycoprotein D-Fc fusion protein (HSV-1) (UniProt Q69091); test: SPR, G-Fc captured on anti-human IgG; high end tied to G77 by Table 6
[11] = target: HSV-1 glycoprotein D-Fc fusion protein (HSV-1) (UniProt Q69091); test: SPR Biacore T200, single cycle kinetics, G-Fc captured on anti-human IgG, 1:1 fit
[12] = target: HSV-1 glycoprotein D-Fc fusion protein (HSV-1) (UniProt Q69091); test: phage ELISA, glycoprotein D coated, anti-M13 HRP; well C5
[13] = target: HSV-1 glycoprotein D-Fc fusion protein (HSV-1) (UniProt Q69091); test: phage ELISA, glycoprotein D coated, anti-M13 HRP; well D6
[14] = target: HSV-1 glycoprotein D-Fc fusion protein (HSV-1) (UniProt Q69091); test: SPR, G-Fc captured on anti-human IgG; low end tied to G44 by Table 6
[15] = target: HSV-1 glycoprotein D-Fc fusion protein (HSV-1) (UniProt Q69091); test: phage ELISA, glycoprotein D coated, anti-M13 HRP; well C6
[16] = target: HSV-1 glycoprotein D-Fc fusion protein (HSV-1) (UniProt Q69091); test: phage ELISA, glycoprotein D coated, anti-M13 HRP; well D2
[17] = target: HSV-1 glycoprotein D-Fc fusion protein (HSV-1) (UniProt Q69091); test: phage ELISA, glycoprotein D coated, anti-M13 HRP; well F1
[18] = target: HSV-1 glycoprotein D-Fc fusion protein (HSV-1) (UniProt Q69091); test: phage ELISA, glycoprotein D coated, anti-M13 HRP; well A6
[19] = target: HSV-1 glycoprotein D-Fc fusion protein (HSV-1) (UniProt Q69091); test: phage ELISA, glycoprotein D coated, anti-M13 HRP; well G11
[20] = target: HSV-1 glycoprotein D-Fc fusion protein (HSV-1) (UniProt Q69091); test: phage ELISA, glycoprotein D coated, anti-M13 HRP; well D1
[21] = target: HSV-1 glycoprotein D-Fc fusion protein (HSV-1) (UniProt Q69091); test: phage ELISA, glycoprotein D coated, anti-M13 HRP; well H8
[22] = target: HSV-1 glycoprotein D-Fc fusion protein (HSV-1) (UniProt Q69091); test: phage ELISA, glycoprotein D coated, anti-M13 HRP; well D3
[23] = target: HSV-1 glycoprotein D-Fc fusion protein (HSV-1) (UniProt Q69091); test: phage ELISA, glycoprotein D coated, anti-M13 HRP; well C8
[24] = target: HSV-1 glycoprotein D-Fc fusion protein (HSV-1) (UniProt Q69091); test: phage ELISA, glycoprotein D coated, anti-M13 HRP; well D5
[25] = target: HSV-1 glycoprotein D-Fc fusion protein (HSV-1) (UniProt Q69091); test: phage ELISA, glycoprotein D coated, anti-M13 HRP; well H1
[26] = target: HSV-1 glycoprotein D-Fc fusion protein (HSV-1) (UniProt Q69091); test: phage ELISA, glycoprotein D coated, anti-M13 HRP; well F3

B1: 3G-10 (VHH)
VHH: QVQLVESGGGLVQPGGSLKLSCASSESIFAFKNYAMSWVRQAPGKGLEWVSTMSGGGGDTKYADSVKGRFTISRDNAKNTVYLQMNSLKPEDTAVYYCAKGWITTDQFASAPRGHGTQVTVSS
[1]
  A450 nm: 1.14

B2: 3G-40 (VHH)
VHH: QVKLEESGGGLAQPGGSLRLSCAASGFSFSFKNYAMSWVRQAPGKGLEWVSTMSGGGGDIKYADSVKGRFTISRDNAKNTLYLQMNSLKPEDTAVYYCAKGWIATDQFTNTPRGQGTQVTVSS
[2]
  A450 nm: 1.09

B3: 3-G-19_M13R (VHH, not shown: small tags and cut ends)
VHH: QVKLEESGGGLVQPGGSLRLSCTASGFSFAFKDYAMSWVRQAPGKGLEWVSTMSGGGGDTKYADSVKGRFTISRDNNKNTVYLQMNSLKPEDTAVYYCAKGWITTNQFADAPRGQGTQVTVSS
[3]
  Kd: 1.71 nM
  koff: 0.000368 s⁻¹
  kon: 216000 M⁻¹ s⁻¹
[4]
  A450 nm: 1.07
[5]
  Kd: 1.73 nM
  koff: 0.000368 s⁻¹
  kon: 213000 M⁻¹ s⁻¹

B4: 3G-24 (VHH)
VHH: QVKLEESGGGLAQPGGSLRLSCTASGFSFAFKNYAMSWVRQAPGKGLEWVSTMSGGGGDTKYADSVKGRFTISRDNAKNTVYLQMNSLKPEDTAVYYCAKGWITTDQFASAPRGHGTQVTVSS
[6]
  A450 nm: 1.09

B5: 3G-26 (VHH)
VHH: QVQLVESGGGLVQPGGSLRLSCTASGFSFAFKNYAMSWVRQAPGKGLEWVSTMSGGGGDTKYADSVKGRFTISRDNAKNTVYLQMNSLKPEDTAVYYCAEGWITTDQFASAPRGQGTQVTVSS
[7]
  A450 nm: 0.892

B6: 3-G-77_M13R (VHH, not shown: small tags and cut ends)
VHH: QVQLVESGGGLVQPGGSLRLSCSASGFSFAFKNYAMSWVRQAPGKGLEWVSTMSGGGGDTKYADSVKGRFTISRDNNKNTVYLQMNSLKPEDTAVYYCAKGWITNNQFAFAPRGQGTQVTVSS
[8]
  A450 nm: 1.25
[9]
  Kd: 0.18 nM
  koff: 0.00102 s⁻¹
  kon: 5.67e+06 M⁻¹ s⁻¹
[10]
  Kd: 0.2 nM
[11]
  Kd: 0.183 nM
  koff: 0.00093 s⁻¹
  kon: 5.07e+06 M⁻¹ s⁻¹

B7: 3G-35 (VHH)
VHH: DVQLVDSGGGLVQPGGSLRLSCSASGFSSAFKNYAMSWVRQAPGKGLEWVSTMSGGGGDTKYADSVKGRFTISRDNNKNTVYLQMNSLKPEDTAVYYCAKGWITNNQFASAPRGQGTQVTVSS
[12]
  A450 nm: 1.13

B8: 3-G-44_M13R (VHH, not shown: small tags and cut ends)
VHH: QVQLVESGGGLVQPGGSLRLSCTASGFSFAFKNYAMSWVRQAPGKGLEWVSTMSGGGGDTKYADSVKGRFTISRDNAKNAVYLQMNSLKPEDTAVYYCAKGWITTDQFATAPRGQGTQVTVSS
[13]
  A450 nm: 1.05
[9]
  Kd: 0.048 nM
  koff: 0.000299 s⁻¹
  kon: 6.2e+06 M⁻¹ s⁻¹
[14]
  Kd: 0.05 nM
[11]
  Kd: 0.051 nM
  koff: 0.000281 s⁻¹
  kon: 5.47e+06 M⁻¹ s⁻¹

B9: 3G-43 (VHH)
VHH: AVQLVESGGGLVQPGGSLRLSCSASGFSFAFKNYAMSWVRQAPGKGLEWVSTMSGGGGDTKYADSVKGRFTISRDNNKNTVYLQMNSLKPEDTAVYYCAEGWITNNQFASAPRGQGTQVTVSS
[15]
  A450 nm: 1.19

B10: 3G-12 (VHH)
VHH: DVQLVESGGGLVQPGGSLRLSCAASGFSFSFKNYAMTWVRQAPGKGLEWVSTMSGGGDETKYADSVKGRFTISRDNTKNTLYLQMNSLKPEDTAVYYCAKGWITTDRFTNTPRGQGTQVTVSS
[16]
  A450 nm: 1.01

B11: 3G-6 (VHH)
VHH: QVQLVESGGGLVQPGGSLRLSCTASGFSFSFKNYAMSWVRQAPGKGLEWVSTMSGGGGDTKYADSVKGRFTISRDNAKNTLYLQMNSLKPEDTAVYYCAKGWITTDRFTDTPRGQGTQVTVSS
[17]
  A450 nm: 0.951

B12: 3-G-41_M13R (VHH, not shown: small tags and cut ends)
VHH: QVQLVESGGGLVQPGGSLRLSCAASGFSFSFKNYAMSWVRQAPGKGLEWVSTMSGGGGDIKYADSVKGRFTISRDNAKNTLYLQMNSLKPEDTAVYYCAKGWITTDQFTNTPRGQGTQVTVSS
[9]
  Kd: 0.092 nM
  koff: 0.000279 s⁻¹
  kon: 3.05e+06 M⁻¹ s⁻¹
[11]
  Kd: 0.096 nM
  koff: 0.000274 s⁻¹
  kon: 2.85e+06 M⁻¹ s⁻¹
[18]
  A450 nm: 0.805

B13: 3G-87 (VHH)
VHH: DVQLVESGGGLVQPGGSLRLSCAASGFSFSFENYAMSWVRQAPGKGLEWVSTMSGGGGDTKYADSVKGRFTISRDNAKNMLYLQMNSLKPEDTAVYYCAKGWITTDRFTNTLRGQGTQVTVSS
[19]
  A450 nm: 1.13

B14: 3G-4 (VHH)
VHH: QVKLEESGGGLVQPGGSLRLSCAASGFSFSFKNYAMSWVRQAPGKGLEWVSTMSGGGDETKYADSVKGRFTISRDNTKNTLYLQMNSLKPEDTAVYYCAKGWITTDRFTNTPRGQGTQVTVSS
[20]
  A450 nm: 1.09

B15: 3G-64 (VHH)
VHH: QVQLVESGGGLVQPGGSLRLSCAASGFSFSFKNYAMSWVRQAPGKGLEWVSTMSGSGGDTKYADSVKGRFTISRDNAKNTLYLQMNSLKPEDTAVYYCAKGWITTDRFTDAPRGQGTQVTVSS
[21]
  A450 nm: 0.985

B16: 3G-20 (VHH)
VHH: EVQLVESGGGLVQPGGSLTLSCAASGFSFSFENYAMSWVRQAPGKGLEWVSTMSGGGGDIKYADSVKGRFTISRDNAKNTLYLQMNNLKPEDSAVYYCAKGWITTNRLTNTPRGQGTQVTVSS
[22]
  A450 nm: 1.18

B17: 3G-59 (VHH)
VHH: QVQLVESGGGLVQPGGSLTLSCAASGFSFSFENYAMSWVRQAPGKGLEWVSTMSGGGGDIKYADSVKGRFTISRDNAKNTLYLQMNNLKPEDSAVYYCAKGWITANRFTNTPRGQGTQVTVSS
[23]
  A450 nm: 1.16

B18: 3G-36 (VHH)
VHH: QVQLVESGGGLVQPGGSLTLSCAASGFSFSFENYAMSWVRQAPGKGLEWVSTMSGGGGDIKYADSVKGRFTISRDNAKNTLYLQMNNLKPEDSAVYYCAKGWITTNQFTNTPRGQGTQVTVSS
[24]
  A450 nm: 0.934

B19: 3G-8 (VHH)
VHH: HVQLVESGGGLVQPGGSLTLSCAASGFSFSFENYAMSWVRQAPGKGLEWVSTMSGGGGDIKYADSVKGRFTISRDNAKNTLYLQMNNLKPEDSAVYYCAKGWITTNRFTNTPRGQGTQVTVSS
[25]
  A450 nm: 0.933

B20: 3G-22 (VHH)
VHH: QVQLVESGGGLVQPGGSLTLSCAASGFSFSFENYAMSWVRQAPGKGLEWVSTMSGGGGDIKYADSVKGRFTISRDNAKNTLYLQMNNLKPEDSAVYYCAKGWITTNRFTNIPRGQGTQVTVSS
[26]
  A450 nm: 1.14
